The assay concerns the target T1, GST-CCNE1 (UniProt P24864 1-410).
T1 construct: CYCLIN E1 (CCNE1), expressed in bacteria; also called GST-tagged CCEN1; GST-tagged CYCLIN E1
The assay is described as follows: pull-down; GST pull-down; His-SPOP and GST-CCNE1 expressed in bacteria and affinity purified. As to conditions: both partners purified.

T1 sequence (P24864 whole entry): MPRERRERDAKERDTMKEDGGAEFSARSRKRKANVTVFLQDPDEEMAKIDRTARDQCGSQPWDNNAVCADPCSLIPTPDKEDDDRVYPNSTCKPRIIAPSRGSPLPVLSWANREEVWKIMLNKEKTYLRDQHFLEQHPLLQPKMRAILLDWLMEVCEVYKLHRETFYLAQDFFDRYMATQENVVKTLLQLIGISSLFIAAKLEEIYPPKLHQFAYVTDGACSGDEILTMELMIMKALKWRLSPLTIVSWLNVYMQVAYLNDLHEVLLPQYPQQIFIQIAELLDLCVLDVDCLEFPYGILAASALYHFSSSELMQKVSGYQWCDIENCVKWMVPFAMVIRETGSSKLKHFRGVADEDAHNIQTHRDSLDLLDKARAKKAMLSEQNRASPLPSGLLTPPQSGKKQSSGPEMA

B1: His-tagged SPOP (natural protein, UniProt O43791 1-374, looked up)
chain: MSRVPSPPPPAEMSSGPVAESWCYTQIKVVKFSYMWTINNFSFCREEMGEVIKSSTFSSGANDKLKWCLRVNPKGLDEESKDYLSLYLLLVSCPKSEVRAKFKFSILNAKGEETKAMESQRAYRFVQGKDWGFKKFIRRDFLLDEANGLLPDDKLTLFCEVSVVQDSVNISGQNTMNMVKVPECRLADELGGLWENSRFTDCCLCVAGQEFQAHKAILAARSPVFSAMFEHEMEESKKNRVEINDVEPEVFKEMMCFIYTGKAPNLDKMADDLLAAADKYALERLKVMCEDALCSNLSVENAAEILILADLHSADQLKTQAVDFINYHASDVLETSGWKSMVVSHPHLVAEAYRSLASAQCPFLGPPRKRLKQS
notes: SPOP, expressed in bacteria; also called His-SPOP
Take B1: the binding result is on record as “binds”.

The record behind these values is PMC6748103, “SPOP suppresses prostate cancer through regulation of CYCLIN E1 stability” (Cell Death and Differentiation, 2018).
